Laboratory results as given in patent US20070184493.

Columns and labels:
[1] = system: substrate designed for detection of Granzyme B (-VGPD′FGR- cleavage)
[2] = system: substrate designed for detection of Caspase 3 (-DEVD′GIN- cleavage)

| Substance | Fluorogenic activity of indicated substrates measured in solution after addition of recombinant enzyme [1] | Fluorogenic activity of indicated substrates measured in solution after addition of recombinant enzyme [2] |
| --- | --- | --- |
| recombinant Granzyme B | selective cleavage of substrates designed for detection of Granzyme B (-VGPD′FGR- cleavage) |  |
| recombinant Caspase 3 |  | selective cleavage of substrates designed for detection of ... Caspase 3 (-DEVD′GIN- cleavage) protease activities |
